# Tested on: Nc1ncnc2c1ncn2[C@@H]1O[C@H](COP(=O)(O)OP(=O)(O)OP(=O)(O)O)[C@@H](O)[C@H]1O
# Assay: purified protein
# Conditions: pH 7.0; 30.0 °C
substance,measurement,value
KFDV NS5 (Kyasanur Forest disease virus),Km,42.15 ± 5.81 µM

# From doi:10.1101/2022.06.29.498065v2
